For one molecule, stoichiometry N results are on record in article doi:10.1101/2021.01.21.427698.

The target in this test is T1, human SEPT2 with a TEV-cleavable N-terminal His6-tag (human), Q15019.
T1 chain: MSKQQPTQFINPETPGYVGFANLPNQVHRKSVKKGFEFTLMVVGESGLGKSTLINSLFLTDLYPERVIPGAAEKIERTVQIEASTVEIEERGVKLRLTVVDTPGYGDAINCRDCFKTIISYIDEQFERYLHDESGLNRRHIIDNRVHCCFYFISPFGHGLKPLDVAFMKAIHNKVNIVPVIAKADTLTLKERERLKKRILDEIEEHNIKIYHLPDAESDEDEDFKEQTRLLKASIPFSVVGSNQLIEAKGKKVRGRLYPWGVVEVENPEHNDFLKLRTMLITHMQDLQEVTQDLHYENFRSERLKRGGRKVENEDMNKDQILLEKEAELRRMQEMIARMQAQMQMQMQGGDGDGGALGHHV
To be noted: remark: other sources report otherwise.

B1: full-length human SEPT7 (untagged, as in the octamers), Q16181 1-437 (natural protein)
chain: MSVSARSAAAEERSVNSSTMVAQQKNLEGYVGFANLPNQVYRKSVKRGFEFTLMVVGESGLGKSTLINSLFLTDLYSPEYPGPSHRIKKTVQVEQSKVLIKEGGVQLLLTIVDTPGFGDAVDNSNCWQPVIDYIDSKFEDYLNAESRVNRRQMPDNRVQCCLYFIAPSGHGLKPLDIEFMKRLHEKVNIIPLIAKADTLTPEECQQFKKQIMKEIQEHKIKIYEFPETDDEEENKLVKKIKDRLPLAVVGSNTIIEVNGKRVRGRQYPWGVAEVENGEHCDFTILRNMLIRTHMQDLKDVTNNVHYENYRSRKLAAVTYNGVDNNKNKGQLTKSPLAQMEEERREHVAKMKKMEMEMEQVFEMKVKEKVQKLKDSEAELQRRHEQMKKNLEAQHKELEEKRRQFEDEKANWEAQQRILEQQNSSRTLEKNKKKGKIF
One may read the stoichiometry N as the number of molecules, sites or subunits per partner or assembly. The molecule B1 registered a stoichiometry N of 1.
